Drawing on article PMC10832047, this text covers TRIMCyp restriction assay: infectivity of control pseudoviruses with pure CA^WT cores in TZM-bl cells expressing TRIMCyp, 48 h (fold reduction in infection) for one substance.

The experiment concerns the target HIV-1 capsid protein (CA), wild type (HIV-1 (NL4-3 / R9 clones)).

Take owl-monkey TRIMCyp (natural protein): the TRIMCyp restriction assay: infectivity of control pseudoviruses with pure CA^WT cores in TZM-bl cells expressing TRIMCyp, 48 h (fold reduction in infection) was determined as 10.
